From article PMC7795263, “Chaperone-Assisted Mitotic Actin Remodeling by BAG3 and HSPB8 Involves the Deacetylase HDAC6 and Its Substrate Cortactin” (International Journal of Molecular Sciences, 2020)

Biological target: T1, myc-cortactin (UniProt Q60598 1-546)
T1 construct: cortactin, myc-tagged plasmid, gift from Dr Zhan (Holland Laboratory, American Red Cross); human cortactin would be Q14247; The PLA used an anti-cortactin antibody, which may also detect endogenous human cortactin of HeLa cells; source: HeLa (parental), transfected (Lipofectamine 2000), in fixed cells
T1 sequence (Q60598 whole entry): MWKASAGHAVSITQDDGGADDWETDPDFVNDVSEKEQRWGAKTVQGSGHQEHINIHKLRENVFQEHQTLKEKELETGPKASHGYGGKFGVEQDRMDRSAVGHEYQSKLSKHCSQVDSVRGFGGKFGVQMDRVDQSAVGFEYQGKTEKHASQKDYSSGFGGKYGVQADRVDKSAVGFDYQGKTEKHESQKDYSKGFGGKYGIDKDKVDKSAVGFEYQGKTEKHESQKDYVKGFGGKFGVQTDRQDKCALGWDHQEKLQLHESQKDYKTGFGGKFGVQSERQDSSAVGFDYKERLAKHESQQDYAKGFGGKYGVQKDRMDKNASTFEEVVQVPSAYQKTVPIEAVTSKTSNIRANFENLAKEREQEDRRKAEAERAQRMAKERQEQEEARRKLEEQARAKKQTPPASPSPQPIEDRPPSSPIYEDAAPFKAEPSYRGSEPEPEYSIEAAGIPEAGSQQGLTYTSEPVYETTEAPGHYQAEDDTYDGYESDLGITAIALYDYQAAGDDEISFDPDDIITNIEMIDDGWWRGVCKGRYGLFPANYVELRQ
Assay: proximity ligation; Duolink in situ PLA with anti-GFP and anti-cortactin antibodies in fixed HeLa cells cotransfected with GFP-HDAC6 and myc-cortactin; asynchronous or synchronized in mitosis (double thymidine block, release 8-9 h); siCtl or siBAG3; PLA foci per cell counted by confocal microscopy
Details: partners not purified

fold change of PLA foci per cell, siBAG3 mitotic cells against siCtl mitotic cells: ~2 fold
B1: GFP-HDAC6 (histone deacetylase 6, WT) (enzyme, UniProt Q9UBN7 1-1215, looked up)
chain: MTSTGQDSTTTRQRRSRQNPQSPPQDSSVTSKRNIKKGAVPRSIPNLAEVKKKGKMKKLGQAMEEDLIVGLQGMDLNLEAEALAGTGLVLDEQLNEFHCLWDDSFPEGPERLHAIKEQLIQEGLLDRCVSFQARFAEKEELMLVHSLEYIDLMETTQYMNEGELRVLADTYDSVYLHPNSYSCACLASGSVLRLVDAVLGAEIRNGMAIIRPPGHHAQHSLMDGYCMFNHVAVAARYAQQKHRIRRVLIVDWDVHHGQGTQFTFDQDPSVLYFSIHRYEQGRFWPHLKASNWSTTGFGQGQGYTINVPWNQVGMRDADYIAAFLHVLLPVALEFQPQLVLVAAGFDALQGDPKGEMAATPAGFAQLTHLLMGLAGGKLILSLEGGYNLRALAEGVSASLHTLLGDPCPMLESPGAPCRSAQASVSCALEALEPFWEVLVRSTETVERDNMEEDNVEESEEEGPWEPPVLPILTWPVLQSRTGLVYDQNMMNHCNLWDSHHPEVPQRILRIMCRLEELGLAGRCLTLTPRPATEAELLTCHSAEYVGHLRATEKMKTRELHRESSNFDSIYICPSTFACAQLATGAACRLVEAVLSGEVLNGAAVVRPPGHHAEQDAACGFCFFNSVAVAARHAQTISGHALRILIVDWDVHHGNGTQHMFEDDPSVLYVSLHRYDHGTFFPMGDEGASSQIGRAAGTGFTVNVAWNGPRMGDADYLAAWHRLVLPIAYEFNPELVLVSAGFDAARGDPLGGCQVSPEGYAHLTHLLMGLASGRIILILEGGYNLTSISESMAACTRSLLGDPPPLLTLPRPPLSGALASITETIQVHRRYWRSLRVMKVEDREGPSSSKLVTKKAPQPAKPRLAERMTTREKKVLEAGMGKVTSASFGEESTPGQTNSETAVVALTQDQPSEAATGGATLAQTISEAAIGGAMLGQTTSEEAVGGATPDQTTSEETVGGAILDQTTSEDAVGGATLGQTTSEEAVGGATLAQTTSEAAMEGATLDQTTSEEAPGGTELIQTPLASSTDHQTPPTSPVQGTTPQISPSTLIGSLRTLELGSESQGASESQAPGEENLLGEAAGGQDMADSMLMQGSRGLTDQAIFYAVTPLPWCPHLVAVCPIPAAGLDVTQPCGDCGTIQENWVCLSCYQVYCGRYINGHMLQHHGNSGHPLVLSYIDLSAWCYYCQAYVHHQALLDVKNIAHQNKFGEDMPHPH
notes: histone deacetylase 6 (HDAC6), wild type, expressed from peGFP.N1-HDAC6 WT (Addgene 36188); The pEGFP-N1 vector usually places GFP at the C-terminus of the insert (surmised); The Addgene 36188 insert is recalled to be human HDAC6; also called peGFP.N1-HDAC6 WT; source: HeLa (parental), transfected (Lipofectamine 2000), in fixed cells
